These results are taken from US20120039908A1.

Sequence of RAGE-Fc fusion protein from bioreactor R79 (Ex Cell 325 PF CHO, 2-deoxy-D-glucose 1 g/L at day 7; 9), Day 12 (chain): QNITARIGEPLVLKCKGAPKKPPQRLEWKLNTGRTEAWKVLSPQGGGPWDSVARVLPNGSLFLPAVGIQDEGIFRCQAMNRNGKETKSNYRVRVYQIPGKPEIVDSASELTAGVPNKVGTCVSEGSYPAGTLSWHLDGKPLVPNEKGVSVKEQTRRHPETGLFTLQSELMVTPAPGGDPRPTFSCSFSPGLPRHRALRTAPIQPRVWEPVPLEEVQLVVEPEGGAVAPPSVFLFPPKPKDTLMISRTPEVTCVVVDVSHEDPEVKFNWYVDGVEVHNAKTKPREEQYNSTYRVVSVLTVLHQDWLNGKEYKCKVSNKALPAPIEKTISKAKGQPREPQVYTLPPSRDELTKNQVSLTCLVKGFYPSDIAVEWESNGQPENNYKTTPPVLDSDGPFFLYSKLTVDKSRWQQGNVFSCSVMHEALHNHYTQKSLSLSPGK
Sequence of RAGE-Fc fusion protein from bioreactor R66 (CD OptiCHO lipid-free, 2-deoxy-D-glucose 1 g/L at day 9), Day 12 (chain): as above
Sequence of RAGE-Fc fusion protein from bioreactor R80 (CD CHO, 2-deoxy-D-glucose 1 g/L at day 7; 9), Day 14 (chain): as above
Sequence of RAGE-Fc fusion protein from bioreactor R80 (CD CHO, 2-deoxy-D-glucose 1 g/L at day 7; 9), Day 12 (chain): as above
Sequence of RAGE-Fc fusion protein from bioreactor R53 (2-deoxy-D-glucose 1 g/L at day 9; 11), Day 10 (chain): as above
Sequence of RAGE-Fc fusion protein from bioreactor R53 (2-deoxy-D-glucose 1 g/L at day 9; 11), Day 12 (chain): as above
Sequence of RAGE-Fc fusion protein from bioreactor R79 (Ex Cell 325 PF CHO, 2-deoxy-D-glucose 1 g/L at day 7; 9), Day 13 (chain): as above
Sequence of RAGE-Fc fusion protein from bioreactor R39 (control, no 2-deoxy-D-glucose), Day 12 (chain): as above
Sequence of RAGE-Fc fusion protein from bioreactor R66 (CD OptiCHO lipid-free, 2-deoxy-D-glucose 1 g/L at day 9), Day 14 (chain): as above

This test concerns the target T1, S100b protein (Cat. No. 559290, Calbiochem).
T1 sequence (P04271 2-92, species assumed, looked up): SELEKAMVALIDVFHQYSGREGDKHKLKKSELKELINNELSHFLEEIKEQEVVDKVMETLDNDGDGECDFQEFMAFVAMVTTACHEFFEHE
The test can be described thus: ELISA, S100b coated on plate; reference baseline bioreactor R39. In general terms: In an ELISA, binding on a coated surface is turned into a signal by an enzyme label.
On to “RAGE-Fc fusion protein from bioreactor R39 (control, no 2-deoxy-D-glucose), Day 12”, for which the Relative binding compared to control was determined as 100%.
“RAGE-Fc fusion protein from bioreactor R53 (2-deoxy-D-glucose 1 g/L at day 9; 11), Day 10” yielded a Relative binding compared to control of 296%.
“RAGE-Fc fusion protein from bioreactor R53 (2-deoxy-D-glucose 1 g/L at day 9; 11), Day 12” had a Relative binding compared to control of 1520%.
“RAGE-Fc fusion protein from bioreactor R66 (CD OptiCHO lipid-free, 2-deoxy-D-glucose 1 g/L at day 9), Day 12” returned a Relative binding compared to control of 3250% and a fold increase in S100b binding activity compared to baseline bioreactor R39 of 32 fold.
Regarding “RAGE-Fc fusion protein from bioreactor R66 (CD OptiCHO lipid-free, 2-deoxy-D-glucose 1 g/L at day 9), Day 14”, the Relative binding compared to control came to 3520%.
With “RAGE-Fc fusion protein from bioreactor R79 (Ex Cell 325 PF CHO, 2-deoxy-D-glucose 1 g/L at day 7; 9), Day 12”, the Relative binding compared to control stood at 527% and the fold increase in S100b binding activity compared to baseline bioreactor R39 worked out at 5 fold.
For “RAGE-Fc fusion protein from bioreactor R79 (Ex Cell 325 PF CHO, 2-deoxy-D-glucose 1 g/L at day 7; 9), Day 13”, the Relative binding compared to control was 2960%.
In the case of “RAGE-Fc fusion protein from bioreactor R80 (CD CHO, 2-deoxy-D-glucose 1 g/L at day 7; 9), Day 12”, the Relative binding compared to control is 1630%.
“RAGE-Fc fusion protein from bioreactor R80 (CD CHO, 2-deoxy-D-glucose 1 g/L at day 7; 9), Day 14” gave a Relative binding compared to control of 8080% and a fold S100b binding activity compared to control bioreactor R39 of 80 fold.
